From patent US20180282403A1, “AGENTS FOR REDUCING THE ACTIVITY OF GDF15” (GENAGON THERAPEUTICS AB, priority 2015, published 2018)

Key:
Format in all cases: cell-based
QRFPR [1] = target: T1, QRFPR (Homo sapiens, UniProt Q96P65); test: In situ PLA detection of ACTRIIB-QRFPR proximity in MCF7 cells; conditions: serum-starved MCF7 cells, GDF15 20 minutes; FIG. 3A-B
T1 construct: endogenous in cells
T1 sequence (Q96P65 1-431): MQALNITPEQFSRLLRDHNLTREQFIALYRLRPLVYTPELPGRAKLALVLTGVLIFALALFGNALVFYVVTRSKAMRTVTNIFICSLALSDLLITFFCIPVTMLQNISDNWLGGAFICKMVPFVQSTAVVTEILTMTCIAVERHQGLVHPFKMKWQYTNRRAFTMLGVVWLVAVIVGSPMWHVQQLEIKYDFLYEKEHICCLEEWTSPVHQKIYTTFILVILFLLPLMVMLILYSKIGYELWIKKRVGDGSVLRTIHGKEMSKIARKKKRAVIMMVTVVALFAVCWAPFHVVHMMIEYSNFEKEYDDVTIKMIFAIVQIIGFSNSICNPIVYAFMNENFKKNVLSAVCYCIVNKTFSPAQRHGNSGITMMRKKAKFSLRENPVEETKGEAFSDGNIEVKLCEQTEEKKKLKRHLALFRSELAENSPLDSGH
Method: MCF7 cells were stimulated with GDF15 (GDF15 from isolated mammalian source or recombinant derived from E. coli purchased from Abcam and Biovision). An assay was developed for monitoring the activity of GDF15 and to investigate the dynamics of receptor(s) such as QRFPR modulation by the ligand.
Serum-starved MCF7 cells were treated with GDF15, and an in situ PLA detection assay was developed to detect the interaction between ACTRIIB and QRFPR using antibodies from two different species, thus allowing the use of Duolink secondary detection reagents. The presence of the QRFPR-ACTRIIB complex was detected in the absence of GDF15 (see FIG. 3A, indicated by arrows).

QRFPR [2] = target: T1, QRFPR; test: In situ PLA detection of CD9-QRFPR proximity; conditions: GDF15 30 minutes; FIG. 4
From the text: The tetraspanin CD9 has dual roles, both in endosome trafficking and in exosome secretion (Mazurov et al.). An in situ PLA assay was developed to detect the proximity of CD9 and QRFPR using antibodies against CD9 and QRFPR. In the absence of GDF15, only a low signal level is observed (FIGS. 4A and 4C).

QRFPR [3] = test: In situ PLA detection of RAB11-QRFPR double positive endosomes in MCF7 cells; conditions: GDF15 stimulation alone; FIG. 5
From the text: The RAB11 protein is a marker for recycling endosomes back to the cell surface, and the RAB11 pathway is also involved in exosome assembly (Savina et al., 2005; Savina et al., 2002). RAB11 was thus thought to be a likely candidate to be involved in QRFPR reduction on the cell surface induced by GDF15
An in situ PLA assay was developed to detect the proximity of RAB11 and QRFPR. In the absence of GDF15, only a low signal is observed (FIGS. 5A and 5C).
We choose to use this assay as a way to investigate if the activity of GDF15 could be inhibited by various agents. […] GDF15-induced formation of RAB11/QRFPR endosomes is inhibited by QRFPR peptides (FIG. 9A-D). Equal amounts of a mastermix of GDF15 was aliquoted and pre-incubated in PBS with the various receptor fragment before addition to cells. Sequentially, the cells were treated with either PBS, GDF15 or GDF15/QRFPR-derived peptide mixes.

CLPTM1 [4] = target: T2, CLPTM1 (Homo sapiens, UniProt O96005); test: In situ PLA detection of the CLPTM1-TGFBRII complex in NK cells; conditions: GDF15 treatment; FIG. 15
T2 construct: endogenous in cells; host or cells: NK-92 cells
T2 sequence (O96005 1-669): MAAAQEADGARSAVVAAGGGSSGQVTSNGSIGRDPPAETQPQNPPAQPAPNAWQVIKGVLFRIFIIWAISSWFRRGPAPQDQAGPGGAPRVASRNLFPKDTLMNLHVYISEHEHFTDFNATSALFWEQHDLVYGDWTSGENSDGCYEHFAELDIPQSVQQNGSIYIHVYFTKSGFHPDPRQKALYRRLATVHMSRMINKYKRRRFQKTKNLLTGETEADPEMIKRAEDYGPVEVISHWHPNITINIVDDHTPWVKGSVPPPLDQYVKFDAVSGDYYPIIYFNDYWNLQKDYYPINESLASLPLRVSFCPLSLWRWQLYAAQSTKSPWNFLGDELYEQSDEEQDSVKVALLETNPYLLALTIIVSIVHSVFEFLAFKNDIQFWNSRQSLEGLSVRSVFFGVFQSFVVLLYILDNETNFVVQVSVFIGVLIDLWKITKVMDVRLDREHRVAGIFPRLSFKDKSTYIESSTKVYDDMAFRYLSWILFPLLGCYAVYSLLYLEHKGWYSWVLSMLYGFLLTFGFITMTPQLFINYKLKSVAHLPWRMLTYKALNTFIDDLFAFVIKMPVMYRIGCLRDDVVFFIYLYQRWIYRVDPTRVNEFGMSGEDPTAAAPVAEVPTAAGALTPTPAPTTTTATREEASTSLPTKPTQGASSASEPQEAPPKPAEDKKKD
From the text: It was not known whether TGFBRI localised with CLPTM1 independently from the corresponding Type II receptor TGFBRII, or whether the TGFBRI-TGFBRII heterocomplex associated with CLPTM1 upon GDF15 stimulation. In order to determine this, a second in situ PLA assay was developed, using antibodies towards TGFBRII in concert with CLPTM1 antibodies from another species. […] (FIG. 15)

QRFPR [5] = target: T1, QRFPR; test: QRFPR levels after prolonged GDF15 stimulation with or without proteasome inhibition; conditions: GDF15 18 hrs, absence of MG132; FIG. 6B
Method: This effect is not seen in cells which are treated with MG132 (FIG. 6D).

CLPTM1 [6] = target: T2, CLPTM1; test: Detection of NKG2D in NK-92 cells after extended GDF15 stimulation; conditions: overnight GDF15 stimulation, FIG. 21A
From the text: Based upon literature, the expression of CLPTM1 in immune cells such as CD8+T-lymphocytes and NK-92 cells, and the GDF15 induced proximity of CLPTM1 to TGFBRI-TGFBRII (through which TGFB1 signals), we investigated whether blockade of CLPTM1 by antibodies could affect the levels of the immune effector NKG2D in NK-92 cells that had been subjected to extended stimulation with GDF15. […] The decrease in NKG2D was reversed in NK-92 cells that had been pre-treated with a binding agent capable of binding to CLPTM1 (an antibody) prior to GDF15 stimulation (FIG. 21B). […] We propose that this may increase their cytotoxicity.

## GDF15: Growth and differentiation factor 15, from mammalian source or recombinant from E. coli (Abcam, Biovision)
QRFPR [1]
  ACTRIIB-QRFPR in situ PLA signal: reduced by GDF15 treatment
QRFPR [2]
  CD9-QRFPR complex signal: higher level of signal
QRFPR [3]
  RAB11-QRFPR double positive endosomes: rapid detection of RAB11-QRFPR double positive endosomes
CLPTM1 [4]
  CLPTM1 proximity to TGFBRII: induced CLPTM1 proximity to TGFBRII
QRFPR [5]
  levels of QRFPR: dramatically reduced the levels of QRFPR
CLPTM1 [6]
  levels of detectable NKG2D: low levels of detectable NKG2D
